Experimental data as given in the DeepSol protein solubility set.

Assay: soluble on expression in E. coli; label from the status in PepcDB or PDB records

| Sequence | soluble on expression in E. coli |
| --- | --- |
| MGHHHHHHSHMFKNTFQSGFLSILYSIGSKPLQIWDKKVRNGHIKRITDNDIQSLVLEIEGTNVSTTYITCPADPKKTLGIKLPFLVMIIKNLKKYFTFEVQVLDDKNVRRRFRASNYQSTTRVKPFICTMPMRLDDGWNQIQFNLLDFTRRAYGTNYIETLRVQIHANCRIRRVYFSDRLYSEDELPAEFKLYLPVQNKAKQ | soluble |
| GPGSMTQNIIRRIFGNRELPENLSGSEYERYMQENFPKWIDEFEKGGFLEATKLPAIKSERDFLSKLIEHKDEIMVVKYWKHGCIPCLSLAEMYKQVSEQCKKENRRIAWYSVNTKDVSARSLVDYQLVNGTPTVQTFSRMKQVGKEIRAISAEELMRELSLREAALNTES | soluble |
| MGSDKIHHHHHHMTMVLDQVVPFGRSMDEYIKIFNLTDADLNKKIIGIGDGPASFNAEMTRQGKSVISVDPLYQFSGDEILQRFNEVLDNIINQVKATSNNWVWSYHKSPDDLRHNRVKVIREFLSDYENGKKSNRYIVDEFPKLKFKTQEFEIALCSHLLFLYSDHLDYDFHLNSIGEMLRIAKEIRIFPLITLMWKHSQHLDEIVKHYTSIGYKIDIENVEYELQPGGNKMLKITRDFYKNHNL | not soluble |
| IYGYVEKATLIDQNLTLSAKLDTGAKSASLHAVNITEIEKKGIPYLRFTVPTKTGDYSFEGEYVGKVKIKVRSSETNPGLLRTTPIKRPVVLLNIKLGDKVRTIKVNLTNRKRFLYPLLLGRDAIIDFNGAVDPALTFTTKSK | soluble |
| MGSDKIHHHHHHMSVNETTNIKKNERSVLLPERHPNHELFICDVLEAIPKDDLASMEHPVFSLATKPDTRTLIYEHRDVKIQITPSVKGLATIFDKDLLIFCISQMIAKKNRGEPLSQNVRLHAYDLLIWTNRETSGDAYRRLIEAFERLRGTTIVTNIKADGEEITTGFGLIDSFKVVRHTATGRMSELEVRISDWMFKIIQGSQVLTLSRDYFRLRKPIERRIYEIARKHCGEQDEWRISIELLQKKTGASSHERAFKAMVRELVKCDHLPDYSVTLEDDMVIFYNRAGLSEKIPLTAFPQLNAETYNDARTVAPGYDVYYLEQEWRDMWVDTGMPLLHNPDKAFIAFCKSRAKRRPMGR | not soluble |
| GSMETSMPEYYEVFGEFRGVLMDKRFTKYWEDVEMFLARPDDLVIATYPKSGTTWISEVVYMIYKEGDVEKCKEDAIFNRIPYLECRNEDLINGIKQLKEKESPRIVKTHLPPKLLPASFWEKNCKMIYLCRNAKDVAVSYYYFLLMITSYPNPKSFSEFVEKFMQGQVPYGSWYDHVKAWWEKSKNSRVLFMFYEDMKEDIRREVVKLIEFLERKPSAELVDRIIQHTSFQEMKNNPSTNYTMMPEEMMNQKVSPFMRKGIIGDWKNHFPEALRERFDEHYKQQMKDCTVKFRMEL | soluble |
| MGHHHHHHSHMEKALLGACDCTQIVKPSGVHLKLVLRFSDFGKAMFKPMRQQRDEETPVDFFYFIDFQRHNAEIAAFHLDRILDFRRVPPTVGRIVNVTKEILEVTKNEILQSVFFVSPASNVCFFAKCPYMCKTEYAVCGNPHLLEGSLSAFLPSLNLAPRLSVPNPWIRSYTLAGKEEWEVNPLYCDTVKQIYPYNNSQRLLNVIDMAIFDFLIGNMDRHHYEMFTKFGDDGFLIHLDNARGFGRHSHDEISILSPLSQCCMIKKKTLLHLQLLAQADYRLSDVMRESLLEDQLSPVLTEPHLLALDRRLQTILRTVEGCIVAHGQQSVIV | soluble |
| MSSLMCHGGGLPEVRVARPSGRAERIAALGELCRAGSIVHIGEAARQIGASEITIRRDLSVGAGGLVCLGGYVMRASEGAEGYSLTAAEASEAGAKEALAVRAAALIEPGDTVFLDCGTTTPYLAARVPQNARVTVVTQALNIAETVARLTGVNLILLAGIYHPETASFSSEEAVAMLGRINITKGFFSAAGVHETEGVTCFHFHEVPVKRAALARSRQPYLVCDGSKWGRLRPATYARLEEFEGWIGAPDRAALEHHHHHH | not soluble |
| MGSDKIHHHHHHMRILIRADGGRDIGMGHIMRTLTLARELNKYFEVIYVCKTENEDRKTSVNGKYAKGIHKILSSGFKVKIVRENNMVEDLYEIKGDILITDSYDVNEEYFKKTSEMFHKTIYIDDMCLYDFKDVDMIINQNINADNLKYDAAGNKSLLLGCRYVMLRDEFKDLGAKIIRRKVRDVMITTGGADPFLLTLKLLYYLKQENYNFHVVVGSSFDDIYVEKLKTYEELKNINFYYNANMKELMKKCDACISAAGSTLYELCSVGVPSLSITVAENQSKAAEKFDALKIIKNLGWHNELTREKVLEEINSLSNDYNRRKNVSMTSQSIIDGMGTQRIVEKILDMV | not soluble |
| QITGIETGFYDFDKLITGLHEDQLIVLAARPAMGKTALALNIAQNVATKSNKAVAVFSLEMGAESLVERMLSAEGTIINHHIRTGNLTVNEWQRLIYAQGQLAEAPIFIDDTAGVKITDIRARARRLSQETDGLGLIVIDYLQLIQGSRSDNRQQEVSEISRQLKIIAKELKVPVIALSQLSRGVEQRNDKRPIMSDL | not soluble |
| MEENTKEMIVIDSVDRYNEIFGLETRHPLVSIIDLAKSTTWPTRAWFRYEVYALYLKNVKCGDIKYGRQYYDYQDGTIVCFAPGQITDLEMLPNIQPNAHGILFHPDLIRGTALGQEIKKYSFFSYETNEALHISEEERQTVMDCLQKITIELEHSIDKHSRRLICANIGLLLDYCMRFYERQFDTRNGVNKDIIVRFEHLLNEYFEGDAPQNQGLPSVKYFADKVFLSANYFGD | not soluble |
| GPGSMYNSGGEVRSYAQRVFALYSRENVLSVSRFCLAWYVLWGKQPNPTVTELLFGRCDASGDGNVTKYPKEICEEGYAAPLRGSSSDYCKRPSGVNTVAVGASVPPNATLQRRISEEEFVRFAVAYYDSMGNDASDLSDVPGAANPFHAVPRVAHWAHFIALAGDKGYVTLQDILETENVAWLRPPEYEDGDVNPKGVRGGGRAALLSHAFAIADSNKDGKVVFGDVENYMRPLSS | not soluble |
| TGEESLQQVAMRASRLGLPKEHLKMLSETNVDKICQIAEKEQPRIMVIDSIQVMHVSDVQSSPGSVAQVRESATALTRYAKQNNVAVFIVGHVTKDGTLAGPKVLEHIIDCSVLLDGGTDSRFRTLRSHKNRFGAVNELGVFAMTGQGLKEVSNPSAIFLSRGEEETSGSSVMVVWEGTRPLLVEIQALVDYSQLANPRRVAVGLEQNRLSLLLAVLHKHGGLQMADQDVFVNVVGGV | not soluble |
| MDDKEKNAEVAKAIKLPDLASYMQVVIKQLEIDKKWSAVHTYTYTLKSVTEFYGGKGTPVPIDEAFTSGRLKEYEEWMRLEGTRNKKTDKKRSDRKHGVPKGLSLNTISTYMRTLKAVYNRLADKKILPYNPKLFDNVYTKVESQTKRALDTKQMNTLLHTDIEKLPKEMQCALAYFLLMFLFRGMPFIDLAHLRKQDVKGKYIVYSRHKTGRQITVRIPKEAMKLIEKFKNMNYDSIYLFPILDKKNAAKEQSQKNGKIKKDKELYMNYLRVLRNFNLKLEKIATLLLPDVKLSSYTPRHTWATLAFHAGVNIGIICKALGHSSIKVTETYLKPFENEKVDIANDELIISVVAHNGEKEVA | not soluble |
| GPGSMPTRSHGDEEYYRQSRYKPVSIEDTPMFWKERADKCYGTQQWKAAANAYSESIKRDGAFLTCVMNRSACYLQMADYKRAIEDCSLALTMLANTPASEVTQERYRGLMTKLHARRGAAYCWADDLKSGAADLRMAAAYRDPTSDDDVAADLAMIEAQMKERGITEVDACVDPLSTRMQEAAAQYYQGSYEAAEATYSAILKEQPFHMKAQGNLAATLLRAGKFTQALQVCDGIVQFCSEAAAALEQPGGLAGDQLDSDDEEDEDEPDWAASSTESAPEEVEGASNKDTLVRQRRAAAKTLGEQSGHVYMLLKAYVRSAAALCGMKEYHKAHGYLERAMRITPYDNDLREDCNRLAEKIRMDTLITASAGSARTQKAAV | soluble |
| MGSDKIHHHHHHMINQIYQLTKPKFINVKYQEEAIDQENHILIRPNYMAVCHADQRYYQGKRDPKILNKKLPMAMIHESCGTVISDPTGTYEVGQKVVMIPNQSPMQSDEEFYENYMTGTHFLSSGFDGFMREFVSLPKDRVVAYDAIEDTVAAITEFVSVGMHAMNRLLTLAHSKRERIAVIGDGSLAFVVANIINYTLPEAEIVVIGRHWEKLELFSFAKECYITDNIPEDLAFDHAFECCGGDGTGPAINDLIRYIRPQGTILMMGVSEYKVNLNTRDALEKGLILVGSSRSGRIDFENAIQMMEVKKFANRLKNILYLEEPVREIKDIHRVFATDLNTAFKTVFKWEV | not soluble |
| MSLLGRVLLFYKKGIFNDDLKKFLRSKNINVIDVRIGKYVEVDIMDDPRKVISLIGEPLFMVTEISGTFKPLFYEMRFWECHEIIEEKWREVKNKDDKKFLQAIILLCASLIKYLKGEIEVSDMLMEKALSLISDLPQELLPLLYISLGLNTEGHHHHHH | soluble |
| MGHHHHHHSGEVKPEVKPETHINLKVSDGSSEIFFKIKKTTPLRRLMEAFAKRQGKEMDSLRFLYDGIRIQADQTPEDLDMEDNDIIEAHREQIGGMRTYLDLLQHVLDHGVDRDDRTGTGTRSVFGYQMRFDLEEGFPVLTTKKLHLRSIIHELLWFLKGDTNIAYLKENGVTIWDEWADENGDLGPVYGYQWRSWPAPDGRHIDQIANLLKMLHTNPQSRRLIVSAWNPALVDEMALPPCHCLFQFYVANGRLSCQLYQRSADIFLGVPFNIASYALLTMMIAQVTGLKPGEFIHTLGDAHIYSNHFEQARLQLTRTPKKLPVMHINPDVKDLFAFRFEDFRLDGYEADPTIKAPIAV | soluble |
| MCMSWSKVKYFFFDTPEEKEAAQYSYEKEQTDMKKQQDPPEQQDVTFPKAQPKQNVVSIETAKQSSKVVLLEPRTYSEAQGIADHLKGRRAVVINLQRMSTDQAVRIVDFLSGTVYAIGGDIQKIGPKTFMTPENVDIVGAISELFGEEEDTNIKRWLEHHHHHH | soluble |
| MARLAAFDMDGTLLMPDHHLGEKTLSTLARLRERDITLTFATGRHALEMQHILGALSLDAYLITGNGTRVHSLEGELLHRDDLPADVAELVLYQQWDTRASMHIFNDDGWFTGKEIPALLQAFVYSGFRYQIIDVKKMPLGSVTKICFCGDHDDLTRLQIQLYEALGERAHLCFSATDCLEVLPVGCNKGAALTVLTQHLGLSLRDCMAFGDAMNDREMLVSVGSGFIMGNAMPQLRAELPHLPVIGHCRNQAVSHYLTHWLDYPHLPYSPE | soluble |
| MIEIHKKFLEKDELFQFLKVAKYHHSPQNSFEVFTTLAYTGMRAGELLALKWSDIDFENNTISITKTYYNPNNNKKHYQILTRKTESSIGKITVDPHVIQLLKDYKVNVQDTWKNELYVDNNFVFTDVNGYPLVIKKLQLWIKAILKKTDITNKQISTHSFRYTHYALLIEAGVHIKEIQERLRHKDINTTMNIYAKITNSYKKDASQKFSKLEHHHHHH | not soluble |
| MFELVDNIAQTAVIKVIGVGGGGGNAVNHMAKNNVEGVEFICANTDAQALKNIAARTVLQLGPGVTKGLGAGANPEVGRQAALEDRERISEVLEGADMVFITTGMGGGTGTGAAPIIAEVAKEMGILTVAVVTRPFPFEGRKRMQIADEGIRALAESVDSLITIPNEKLLTILGKDASLLAAFAKADDVLAGAVRGISDIIKRPGMINVDFADVKTVMSEMGMAMMGTGCASGPNRAREATEAAIRNPLLEDVNLQGARGILVNITAGPDLSLGEYSDVGNIIEQFASEHATVKVGTVIDADMRDELHVTVVATGLGARLEKPVKVVDNTVQGSAAQAAAPAQREQQSVNYRDLDRPTVMRNQSHGSAATAAKLNPQDDLDYLDIPAFLRRQAD | soluble |
| MGSDKIHHHHHHMHQLKREALLREAIAAFNQKGFHATSLGDIATSLGVTKAALYHYFPNKHALLFEAFAEALRVGFEAIEAAERHGGSGLDKLQMAVREYLQVTLSEMSRCVIITEEHALEPQDRAKIVEQRDRFEAKLRGFVREGIEDGSVIPCDPKLAIFSIFGAVNWVPKWFSDSGNWSNKQLAKGMSELLCRAVARHPAEAFAPDIGKMRVE | not soluble |
